These results are taken from PMC11154964, “The Light Chain Allosterically Enhances the Protease Activity of Murine Urokinase-Type Plasminogen Activator” (Biochemistry, 2024).

For test [1], the target named is protease domain (heavy chain) of murine urokinase-type plasminogen activator (muPA WT, after plasmin cleavage) (mouse (murine)) (UniProt P06869).
For test [2], the target named is T1, protease domain (heavy chain) of murine urokinase-type plasminogen activator (muPA WT, after plasmin cleavage) (mouse (murine), UniProt P06869 180-433, C281 (122CT) disulfide-bonded to C149 (1CT) of the light chain).
T1 construct: Stood in the assay as one of the two chains of muPA WT or of its light-chain mutants; also called serine protease domain
In words: HDX-MS; two-chain muPA (light chain disulfide-bonded to the protease domain; WT 20 μM, F(−2)CTA 8.5 μM, K4CTG 13 μM) compared with No-Light-Chain muPA (10 μM); PBS pH 7.4, 22 °C, deuteration 0, 30, 60, 120, 600 s. Particulars: both partners purified.

Test [3] deals with T1, protease domain (heavy chain) of murine …. In words: cell-based or functional assay.

Ends that are not written are not given here.

T1 sequence (P06869 180-433): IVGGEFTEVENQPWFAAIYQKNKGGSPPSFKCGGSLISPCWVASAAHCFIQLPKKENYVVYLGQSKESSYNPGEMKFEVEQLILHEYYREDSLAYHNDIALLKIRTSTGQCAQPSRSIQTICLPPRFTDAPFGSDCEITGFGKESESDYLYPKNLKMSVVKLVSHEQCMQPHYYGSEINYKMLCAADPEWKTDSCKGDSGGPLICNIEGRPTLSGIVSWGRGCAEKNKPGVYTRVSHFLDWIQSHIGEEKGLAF
protease domain (heavy chain) of murine urokinase-type plasminogen activator (muPA WT, after plasmin cleavage) (mouse (murine)), sequence (P06869 180-433): as above

For “light chain of muPA with the mutation F(−2CT)A (from UniProt P06869 153-179) (domain or fragment)”, the kcat of the amidolytic activity (chromogenic substrate S2444) of two-chain muPA F(−2CT)A in test [1] was determined as 12 s^–1.

B1: disordered light chain of murine urokinase-type plasminogen activator (muPA WT, after plasmin cleavage) (domain or fragment, mouse (murine), UniProt P06869 153-179, looked up)
chain: SLSKKPSSSVDQQGFQCGQKALRPRFK
modifications: not fully specified; also: disulfide to Cys281 of the protease domain chain, disulfide at 17, other end not in the chain
notes: Stood in the assay as one of the two chains of muPA WT (133-413), tethered to m2 by a disulfide bond; The construct has an N-terminal 6xHis-tag and a TEV protease cleavage site; also called disordered linker; light chain of muPA WT
On to B1, for which the binding result in test [2] was “binds”.

B2: light chain of muPA with the mutation K4CTG (domain or fragment, mouse (murine), UniProt P06869 153-179, looked up)
chain: SLSKKPSSSVDQQGFQCGQGALRPRFK
modifications: not fully specified; also: disulfide to Cys281 of the protease domain chain, disulfide at 17, other end not in the chain
Take B2: the “kcat of the amidolytic activity (chromogenic substrate S2444) of two-chain muPA K4CTG” value in test [3] was 22 s^–1.
